Test results published in publication PMC5380474 (Molecular microbiology, 2017).
Like-named read-outs stand apart in the source and are kept apart here.

Columns and labels:
Test in all cases: cross-linking
cross-linking [1] = biological target: the molecule itself
cross-linking [2] = biological target: the molecule itself; remark: listed apart in the source
cross-linking [3] = biological target: the molecule itself; remark: listed apart in the source

B1: FLAG-tagged FlhA D170C/R185C (natural protein)
chain: MANLVAMLRLPSNLKSTQWQILAGPILILLILSMMVLPLPAFILDLLFTFNIALSIMVLLVAMFTQRTLDFAAFPTILLFTTLLRLALNVASTRIILMEGHTGAAAAGKVVEAFGHFLVGGNFAIGIVVFIILVIINFMVITKGAGRIAEVGARFVLDGMPGKQMAIDACLNAGLIGEDEAKKRCSEVTQEADFYGSMDGASKFVRGDAIAGILIMVINVVGGLLVGVLQHGMSIGSAAESYTLLTIGDGLVAQIPALVISTAAGVIVTRVSTDQDVGEQMVGQLFSNPRVMLLAAAVLGLLGMVPGMPNLVFLLFTAALLGLAWWLRGREEKAPEEPQPVKMPENNSVVEATWNDVQLEDSLGMEVGYRLIPMVDFQQDGELLGRIRSIRKKFAQDMGFLPPVVHIRDNMDLQPARYRILMKGVEIGSGDAYPGRWLAINPGTAAGTLPGEKTVDPAFGLDAIWIESALKEQAQIQGFTVVEASTVVATHLNHLIGQFSAELFGRQEAQQLLDRVSQEMPKLTEDLVPGVVTLTTLHKVLQNLLAEKVPIRDMRTILETLAEHAPLQSDPHELTAVVRVALGRAITQQWFPGNEEVQVIGLDTALERLLLQALQGGGGLEPGLADRLLAQTQEALSRQEMLGAPPVLLVNHALRPLLSRFLRRSLPQLVVLSNLELSDNRHIRMTATIGGK
stoichiometry N (cross-linking [1]): 9
stoichiometry N (cross-linking [2]): 7
stoichiometry N (cross-linking [3]): 5
